Two molecules from US20070003982 can be followed below.

Data set [1] has as its target full length αII-spectrin, rat (UniProt P16086).
Data set [2] deals with full length αII-spectrin, rat, P16086.

In the case of purified porcine calpain-2, the “αII-spectrin fragmentation patterns (Western blot after in vitro digestion of rat brain cortex lysate)” value in data set [1] was “calpain-produced SBDP150”.

B1: purified recombinant human caspase-3 (protein)
chain: SGISLDNSYKMDYPEMGLCIIINNKNFHKSTGMTSRSGTDVDAANLRETFRNLKYEVRNKNDLTREEIVELMRDVSKEDHSKRSSFVCVLLSHGEEGIIFGTNGPVDLKKITNFFRGDRCRSLTGKPKLFIIQACRGTELDCGIETDSGVDDDMACHKIPVEADFLYAYSTAPGYYSWRNSKDGSWFIQSLCAMLKQYADKLEFMHILTRVNRKVATEFESFSFDATFHAKKQIPCIVSMLTKELYFYH
In the case of B1, in data set [2], the “αII-spectrin fragmentation patterns (Western blot after in vitro digestion of rat brain cortex lysate)” value is “Caspase-3-produced SBP150i”.
